Results: article PMC9103184, “Kunitz-Type Peptides from Sea Anemones Protect Neuronal Cells against Parkinson’s Disease Inductors via Inhibition of ROS Production and ATP-Induced P2X7 Receptor Activation” (International Journal of Molecular Sciences, 2022)

Biological target: T1, trypsin (Bos taurus, UniProt P00760)
T1 sequence (P00760 24-246): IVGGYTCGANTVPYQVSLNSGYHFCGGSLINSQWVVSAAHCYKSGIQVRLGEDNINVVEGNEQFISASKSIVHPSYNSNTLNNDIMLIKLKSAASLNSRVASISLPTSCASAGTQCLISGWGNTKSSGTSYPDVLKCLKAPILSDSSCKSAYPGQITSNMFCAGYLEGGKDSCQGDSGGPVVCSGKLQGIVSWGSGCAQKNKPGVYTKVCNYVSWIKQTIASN
Test: Residual trypsin-inhibitory activity after heating
Type: biochemical
Settings: all temperature ranges up to 100 °C; 7 μM peptide, 1.2 mM BAPNA, 37 °C, 410 nm, three parallel experiments
Procedure: Figure 6 The effects of temperature on the trypsin-inhibitory activity levels of peptides. Peptides were incubated at the temperatures for 30 min and their residual activities were measured.
The temperature influence on the activity levels of peptides was assessed by measuring their residual inhibitory activity levels. After preincubation at temperatures ranging from 25 to 100 °C for 25 min, the peptide solutions were added to trypsin solution and the reaction mixtures were incubated for 10 min at 37 °C, then 1.2 mM BAPNA was added, followed by incubation at 37 °C for 30 min. The final concentration of the peptides was 7 μM. Substrate hydrolysis was measured at 410 nm. The residual activity was calculated based on the results of three parallel experiments according to the following equation [60]:% = (1 − residual enzyme activity/enzyme activity without inhibitor) × 100

## HCIQ2c1: recombinant Kunitz-type peptide from Heteractis crispa, UniProtKB ID A0A6B7FBD3 (IQGNICSEPKKVGRCRGSFPRFYFDSETGKCTPFIYGGCGGNGNNFETLHACRAICRA; UniProt A0A6B7FBD3 28-85, looked up)
  trypsin-inhibitory activity after heating: inhibit trypsin completely at all temperature ranges
